One block for each molecule: values may come before it.
Columns and labels:
RBP4 [1] = target: T1, RBP4 (Homo sapiens, UniProt P02753); settings: ligand-induced conformational changes of human RBP4; cited from earlier work
[2] = Analytical size exclusion chromatography (SEC) of RBP4 binding interaction partners; assay type: physicochemical; settings: PBS with 200 mM NaCl, 25° C.
Experimental: For analytical SEC analysis, a total amount of 25 μg rcSso7d or FN3 mutants in running buffer (PBS with 200 mM NaCl) is filtered through 0.1 μm Ultrafree-MC filter (Merck Millipore), applied to a Superdex 200 10/300 GL column (GE healthcare) connected to an HPLC prominence LC20 system (Shimadzu) and eluted with a flow rate of 0.75 mL/min at 25° C. In addition, multi-angle light scattering (MALS) is used for determining the molecular mass using WYATT Heleos Dawn8+ plus QELS, a refractive index detector RID-10A (Shimadzu) and a diode array detector SPD-M20A (Shimadzu).
For analytical SEC analysis, a total amount of 25 μg of RBP4 binding interaction partners in running buffer (PBS with 200 mM NaCl) was filtered through a 0.1 μm Ultrafree-MC filter (Merck Millipore), applied to a Superdex 200 10/300 GL column (GE healthcare) connected to an HPLC Prominence LC20 system (Shimadzu) and eluted with a flow rate of 0.75 mL/min at 25° C.

RBP4 [3] = target: T1, RBP4; test: Isothermal titration calorimetry (ITC) of binder-RBP4 interaction; assay type: binding; set-up: Human His-tagged RBP4 (residues 19-201) in pPICZ-alpha-A vector; made in house; host or cells: Pichia pastoris KM71H (secreted); settings: presence (50 μM) and absence of A1120
Experimental: For the thermodynamic characterization of the interaction between RBP4 and rcSso7d- or FN3-based lipocalin-fold binding interaction partners, isothermal titration calorimetry (ITC) is conducted using an automated MicroCal PEAQ-ITC instrument (Malvern Instruments). The samples are centrifuged (17,000 g, 10 min, 20° C.) and filtered (0.1 μm Ultrafree-MC filter, Merck Millipore). RBP4 protein solution is applied to the sample cell and the respective binders are titrated with varying intervals. Different concentrations both for RBP4 and binders are used and in some experiments, binders are applied to the sample cell and RBP4 is titrated. The experiments are performed both in the presence and absence of the ligand A1120 or other ligands. Data analysis is performed with the MicroCal PEAQ-ITC analysis software.
For the thermodynamic characterization of the interaction between RBP4 and rcSso7d- or FN3-based lipocalin-fold binding interaction partners (in this case RBP4 binding interaction partners), isothermal titration calorimetry (ITC) was conducted using the PEAQ Isothermal Titration Calorimeter Automated (Malvern Panalytical). The samples were centrifuged (17000 g, 10 min, 20° C.) and dialysed against the same buffer (PBS). RBP4 protein solution was applied to the sample cell and the respective RBP4 binding interaction partners were titrated with varying intervals. Different concentrations both for RBP4 and RBP4 binding interaction partners were used. […] Data analysis was performed with the MicroCal PEAQ-ITC analysis software and the resulting data were fitted to a one-set-of-sites binding model. […] The signature plots show the thermodynamic parameters of the interaction between RBP4 and RS3. One representative experiment out of four independent experiments is shown. […] The integrated data were fitted to one-set-of-sites binding model to calculate the KD values in FIG. 18. Signature plots show the thermodynamic parameters of the interaction. One representative experiment out of four independent experiments is shown.

RBP4 [4] = target: T1, RBP4; test: Surface plasmon resonance (SPR), RBP4 immobilized on chip; assay type: binding; set-up: Human His-tagged RBP4 (residues 19-201) in pPICZ-alpha-A vector; made in house; host or cells: Pichia pastoris KM71H (secreted); settings: for dependence of affinity to RBP4 on the lipocalin-fold ligand A1120: SPR, presence (5 μM) and absence of A1120
Experimental: Surface plasmon resonance (SPR) is used to determine the affinity of the interaction between RBP4 and rcSso7d- or FN3-based lipocalin-fold binding interaction partners and is performed with BiacoreT200 (GE healthcare). The antigen (RBP4) is coated onto a chip and incubated with various concentrations of binder solution in PBS, followed by a dissociation phase in PBS only. All measurements are performed both in the presence and absence of A1120 or other ligands. Finally, kon, koff and Kd values are obtained by global fitting.
Surface plasmon resonance (SPR) was used to determine the affinity of the interaction between RBP4 and rcSso7d- or FN3-based lipocalin-fold binding interaction partners and was performed with BiacoreT200 (GE Healthcare). The antigen (RBP4) was coated onto a CM5 chip (GE Healthcare) and incubated with various concentrations of lipocalin-fold binding interaction partner solution in HBS-EP (GE Healthcare), followed by a dissociation phase in HBS-EP. […] Finally, Kd values (dissociation constants) were obtained by steady-state analysis. […] KD values were calculated by steady-state analysis (right diagram in A and C). One representative experiment out of four independent experiments is shown.

[5] = Differential scanning calorimetry (DSC) of RBP4 binding interaction partners; settings: 80 μM protein, 20-110° C.
Experimental: The stability of RBP4-binding interaction partners is evaluated by determining the melting temperature (Tm) by differential scanning calorimetry (DSC) using MicroCal VP-DSC capillary cell microcalorimeter (MicroCal). Briefly, 30 μM protein solution is exposed to an increasing temperature ranging from 20-110° C. with a heating rate of 1° C./min. Buffer baseline is subtracted and the resulting data are normalized for protein concentration, followed by fitting with a non-two-state thermal unfolding model.
The thermal stability of RBP4 binding interaction partners was evaluated by determining the melting temperature (Tm) by differential scanning calorimetry (DSC) using the PEAQ Differential Scanning Calorimeter Automated (Malvern Panalytical). Briefly, 80 μM protein solution was exposed to an increasing temperature ranging from 20-110° C. with a heating rate of 1° C./min. Buffer baseline was subtracted and the resulting data were normalized for protein concentration, followed by fitting with a non-two-state thermal unfolding model.

Molecule: CCNC(=O)/C=C(C)/C=C/C=C(C)/C=C/C1=C(C)CCCC1(C)C [N-Ethylretinamide]
effect of ligand on the RBP4-TTR interaction (RBP4 [1]): dissociation from TTR

Molecule: CC1=C(/C=C/C(C)=C/C=C/C(C)=C/C(=O)O)C(C)(C)CCC1 [all-trans retinoic acid]
effect of ligand on the RBP4-TTR interaction (RBP4 [1]): dissociation from TTR

Molecule: CC1=C(/C=C/C(C)=C/C=C/C(C)=C/C(=O)Nc2ccc(O)cc2)C(C)(C)CCC1 [Fenretinide, 15-[(4-hydroxyphenyl)amino]retinal]
effect of ligand on the RBP4-TTR interaction (RBP4 [1]): dissociation from TTR

Molecule: C/C=C(C)/C=C/C=C(C)/C=C/C1=C(C)CCCC1(C)C [axerophthene]
effect of ligand on the RBP4-TTR interaction (RBP4 [1]): dissociation from TTR

Molecule: CC(=O)OC/C=C(C)/C=C/C=C(C)/C=C/C1=C(C)CCCC1(C)C [retinyl acetate]
effect of ligand on the RBP4-TTR interaction (RBP4 [1]): dissociation from TTR

B1: RF2: FN3-based lipocalin-fold binding interaction partner binding RBP4 in an A1120-dependent manner (protein)
chain: VSDVPRDLEVVAATPTSLLISWYYPNASHAGYYRITYGETGGNSPVQEFTVPFSIRYTIATISGLKPGVDYTITVYAVTDYAYYYRLSEPISINYRTEIDKPSQ
folding and oligomeric state (SEC analysis) [2]: well folded, monomeric proteins
dependence of affinity to RBP4 on the lipocalin-fold ligand A1120 (RBP4 [3]): strongly depend on the presence of the lipocalin-fold ligand
dependence of affinity to RBP4 on the lipocalin-fold ligand A1120 (RBP4 [4]): strongly depend on the presence of the lipocalin-fold ligand

SPR binding signal to RBP4 (RBP4 [4]; absence of A1120, same RS3 concentrations as used with 5 μM A1120): almost no signal
B2: RS3: rcSso7d-based lipocalin-fold binding interaction partner binding RBP4 in an A1120-dependent manner (protein)
chain: ATVKLTYQGEEKQVDISKIKRVARYGQNIYFSYDEGGGAYDYGAVSEKDAPKELLQMLEKQ
thermal stability (DSC analysis) [5]: stable proteins
folding and oligomeric state (SEC analysis) [2]: well folded, monomeric proteins
dependence of affinity to RBP4 on the lipocalin-fold ligand A1120 (RBP4 [3]): strongly depend on the presence of the lipocalin-fold ligand
dependence of affinity to RBP4 on the lipocalin-fold ligand A1120 (RBP4 [4]): strongly depend on the presence of the lipocalin-fold ligand

B3: RS5: rcSso7d-based lipocalin-fold binding interaction partner binding RBP4 in an A1120-dependent manner (protein)
chain: ATVKFTYQGEEKQVDISKIKRVARYGQGIYFDYGEGGGAWGYGSVSEEDAPKELLQMLEKQ
thermal stability (DSC analysis) [5]: stable proteins
folding and oligomeric state (SEC analysis) [2]: well folded, monomeric proteins
dependence of affinity to RBP4 on the lipocalin-fold ligand A1120 (RBP4 [3]): strongly depend on the presence of the lipocalin-fold ligand
dependence of affinity to RBP4 on the lipocalin-fold ligand A1120 (RBP4 [4]): strongly depend on the presence of the lipocalin-fold ligand

— patent publication US12102653B2, “Ligand regulated protein-protein interaction system” (ST. ANNA KINDERKREBSFORSCHUNG, priority 2017, dated 2024)
